How the values were obtained:
[1] = target: T1, arylalkylamine N-acetyltransferase like 7 (AANATL7) (Drosophila melanogaster, UniProt Q9W4Y1); test: dead-end inhibition kinetics; format: biochemical
[2] = target: T1, arylalkylamine N-acetyltransferase like 7 (AANATL7); test: intrinsic protein fluorescence quenching; format: binding
[3] = target: arylalkylamine N-acetyltransferase like 7 (AANATL7) (Drosophila melanogaster, UniProt Q9W4Y1, R138A); test: intrinsic protein fluorescence quenching; format: binding
[4] = substrate: CC(=O)SCCNC(=O)CCNC(=O)[C@H](O)C(C)(C)COP(=O)(O)OP(=O)(O)OC[C@H]1O[C@@H](n2cnc3c(N)ncnc32)[C@H](O)[C@@H]1OP(=O)(O)O; test: purified protein; conditions: binds first in ordered sequential mechanism; pH 8.0
[5] = substrate: CCCC(=O)SCCNC(=O)CCNC(=O)[C@H](O)C(C)(C)COP(=O)(O)OP(=O)(O)OC[C@H]1O[C@@H](n2cnc3c(N)ncnc32)[C@H](O)[C@@H]1OP(=O)(O)O; test: steady-state kinetics, Km,app; format: biochemical, Drosophila melanogaster; conditions: pH 8.0
[6] = substrate: NCCc1c[nH]c2ccc(OCc3ccccc3)cc12; test: steady-state kinetics, Km,app; format: biochemical, Drosophila melanogaster; conditions: acetyl-CoA; pH 8.0
[7] = substrate: NCCc1c[nH]c2ccccc12; test: steady-state kinetics, Km,app; format: biochemical, Drosophila melanogaster; conditions: acetyl-CoA; pH 8.0
[8] = substrate: NCCc1ccc(O)cc1; test: steady-state kinetics, Km,app; format: biochemical, Drosophila melanogaster; conditions: acetyl-CoA; pH 8.0

`CCCCCCCC/C=C\CCCCCCCC(=O)SCCNC(=O)CCNC(=O)[C@H](O)C(C)(C)COP(=O)(O)OP(=O)(O)OC[C@H]1O[C@@H](n2cnc3c(N)ncnc32)[C@H](O)[C@@H]1OP(=O)(O)O` [oleoyl-CoA] was tested, and the Ki [1] was 0.2 ± 0.01 µM.

`OCCc1ccc(O)cc1` [tyrosol] showed a Ki [1] of 430 ± 20 µM.

Molecule `CC(C)(COP(=O)(O)OP(=O)(O)OC[C@H]1O[C@@H](n2cnc3c(N)ncnc32)[C@H](O)[C@@H]1OP(=O)(O)O)[C@@H](O)C(=O)NCCC(=O)NCCS` [coenzyme A] has a Kd [2] of 530 ± 110 µM and a Kd [3] of 1100 ± 200 µM.

B1: arylalkylamine N-acetyltransferase like 7 (AANATL7) (Drosophila melanogaster) (protein)
chain: MEYKMIAPEHSEQVMEHLRRNFFADEPLNKAAGLCQNGSSCPALEAHCAEAIQHRMSVMAVDAKEKDTLKIVGVVLNGILKPGDTAKALSKLDCNDDADFRKIFDLLHRHNLKHNLFEHFDVDCMFDVRILSVDSCYRGQGIANELVKRSVAVAKKNGFRLLKADATGIFSQKIFRSHGFEVFSEQPYSKYTDENGKVILPVEAPHIKLQQLYKAICADDQDEKKQSL
Work on B1 yielded a Km [4] of 29 ± 2 µM, a kcat [4] of 32 s⁻¹ and a kcat/Km [4] of 1.1e+06 M⁻¹ s⁻¹. The Km [5] was 6 ± 1 µM, the kcat [5] was 0.66 ± 0.02 s⁻¹ and the kcat/Km [5] was 110000 ± 20000 M⁻¹ s⁻¹. The Km [6] was 9 ± 1 µM, the kcat [6] was 5.7 ± 0.1 s⁻¹ and the kcat/Km [6] was 630000 ± 40000 M⁻¹ s⁻¹. It also gave a Km [7] of 26 ± 2 µM, a kcat [7] of 16 ± 0.3 s⁻¹ and a kcat/Km [7] of 600000 ± 40000 M⁻¹ s⁻¹. For the same molecule, the Km [8] was 42 ± 2 µM.

— publication PMC4749145 (Biochemistry, 2015)
